Assay: soluble on expression in E. coli; label from the status in PepcDB or PDB records

| Sequence | soluble on expression in E. coli |
| --- | --- |
| MIIMGLFDEVVGAFLKGDAGKYQAILSWVEEQGGIQVLLEKLQSGGLGAILSTWLSNQQGNQSVSGEQLESALGTNAVSDLGQKLGVDTSTASSLLAEQLPKIIDALSPQGEVSPQANNDLLSAGMELLKGKLFR | not soluble |
| MIINITILEDNESDFITLSDSIKKWAANTGILINIIWLNSYKKFIKSLPTLKCDLFFSDIELNCNNSFTGIDACKQLRESGYTGIIIFLTAFKEYVFDGYDVQAFNYLLKPINYGTINNCLDKFIHLFSREFYYLEHHHHHH | soluble |
| MIIVHHLNNSRSQRILWLLEELGLPYEIKRYQRDPKTNLAPPELKAIHPLGKSPVIEDGPHVVIESGAIVDYLIRRHGDGRLQPDPASATYDEYVQWLHFAEGSAILPLMLNLYVGRLGDAGAPLHPRIHSELANYLGYLNEALGLTPYLLGDELSGADIQMSFIGEFAKMQGMLQPHPNLAAWVQRCQERPAYRQALEQGGEYSFAK | not soluble |
| MIIVRLCGGLGNQMFQYAAGLAAAHRIGSEVKFDTHWFDATCLHQGLELRRVFGLELPEPSSKDLRKVLGACVHPAVRRLLSRRLLRALRPKSLVIQPHFHYWTGFEHLTDNVYLEGYWQSERYFSNIADIIRQQFRFVEPLDPHNAALMDEMQSGVSVSLHIRRGDYFNNPQMRRVHGVDLSEYYPAAVATMIEKTNAERFYVFSDDPQWVLEHLKLPVSYTVVDHNRGAASYRDMQLMSACRHHIIANSTFSWWGAWLNPRPDKVVIAPRHWFNVDVFDTRDLYCPEWIVLLEHHHHHH | soluble |
| MIKAIIFDVDETLVYYEGYSLREWYEKVGLPAMKELGVIVDWEIFRKMARGELPRSYVEKFQINHVKFWKALDEANRKYREELLKEGKVHTFKDVEALKEIKNLGIKLAAVSNASQDNTELVLRAFDLLKYFDVVYGKDYTYLDGVKPNPYLINKALKALNVEPKEAILVGDSELDIIAGKRAKLRVVQIVREKRVEGADVYINSLWELVDKLKTGEL | soluble |
| MIKESIILKNLEVPTGNICVIKGDKGKLEFLSLGDYGKEVNVKADFLGITRDLEGVPNGKVQPLTKKWVVTMSTQYGCDSGCKFCDVPKVGKGVNVTYNDLKTQLEQALNLHPEIDRTERLNIHYARMGEPSWNNDVLDFTRNLKNIVKPYIGESLIHPVFTTMCPNKNKFLAHRINEWVDIKNNLFQGDAGLQLSINSTNENQRRDMFRGNALTLNEISSIGNDLPMPKGRKYCLNFALADEYEVDAKVLKKLFDPSKFMVKITPLHKTVSSIENDIKTTKGYVSYTPYKDIENDLKKMGFDVLVFVPSYDEDLGRITCGNVILSGSLPKCKYKINLEHHHHHH | not soluble |
| MIKLENEVLLVEMKTAGAELTRIFHKDTGLEYLWNADSKFWGRHSPVLFPTVGRLVEDTYLVDGKPYHLGQHGFARDRDFQVVEQTEKSVRFELDADEDSLAVYPYKFKLSIIYTIEKNTVAVSYEVENTDNKRIYFSIGAHPAFNLPLTDGTTFEDYYLDFGTEENLETLCLEGPYRSGEIKKVVDEAARYLPLNYDLFKNDALIFEALKQKEMTIKSDKTPHFVKVSFPEFPFVGVWTAKAGTPFLCIEPWYGIADGAGESVELRDKAGIEHLEPEAVFASEYEITVGLEHHHHHH | soluble |
| MIKQNSFVPYPEAMLPKGFKYPQSYLKLAQSTHAINYDEQYSFPWWFENAESNISEVIDIYFEITGIPNLLPFARNQEWAACFDISDKSGNPKIIVVNLDNTKYYETFENFDTWLKEAENDGW | soluble |
| MIKSYKIRGTSLTVNRSDSYPDACNWTADSFGMLFYDPEYDLSTESLSITLDAGNDWVPEGGLVYESLPVKVTYENPEMMDYGTDWFNQGYSALGWNGEEYAYLGTDRGIVNILLEEDEKILYPNEEYDLKEGYTLKVTDLASDKACLTLSRNKLPVYSSIISPGKSADLGTHTFLYKKELNGVEVPLFSVYVDSVIQGDELSAVNLKHLLHFSDSPLELNYGKEYGELTIVETYPKLRLENKHVVWSGSDINVTEDIWIGRFEKKTAGNLFVTFYPYMNKVENVRSILPSVSSWSIPAMSIEEYLIGVLEHHHHHH | not soluble |
| MIKTLKEHTKIVRSVTFSPNGKYLAVGDICGTVEIWRVL | soluble |
| MIKVKEDKNEQVKKRWGDKPYYSLNYFLREKFQDKVFKISLDAGFSCPNRDGTISRGGCMFCSERGSGDFAGNRKFSISTQFEDIKDMMKNKWKNGKYIAYFQAYTNTYAPIKVLREKYSEAISKDGVVGLAIATRPDCLSEEVLDLIQEFSKRIYVWVELGLQTANDKVAKVINRGYDTIVFDDAVKKLRERKIDVVVHTIFGLPGEKPKDMLSTIDYVAHKEVQGIKIHLLHLMRGTPLVELYNNGQLTFMSEEEYVETVCRAITMLPQNIV | not soluble |
| MILHAQAKHGKLGLPWLVFLHGFSGDCHEWQEVGEAFADYSRLYVDLLGHGGSAAISVDGFDDVTDLLRKTLVSYNILDFWLVGYSLGGRVAMMAACQGLAGLCGVIVEGGHPGLQNAEQRAERQRSDRQWAQRFRTEPLTAVFADWYQQPVFASLNDDQRRELVALRSNNNGATLAAMLEATSLAVQPDLRANLSARTFAFYYLCGERDSKFRALAAELAADCHVIPRAGHNAHRENPAGVIASLAQILRF | not soluble |
| MILLPSIRLPETAMNTDSPINRVEQVQVDDLACWRIHTAHGEALIAQQGAQLLSYQPHEQPPLVWLSDEAGYRRGQSVRGGVPVCWPWFGPLERNPQEVRGQVEDGLKAPAHGLVRAVDWKIDDIAEEDGDLCVSFRLDAPDGLPGWPHPAALRMLFRFGERLTLRLTSENLGSKPLVLSQALHTYFAVSDSREIAIEGLEGARYIETLENWEERTQHGAVRVKGELDRIYLGLERDLLIKDPRWERSIHLHALDSRSAVVWNPWVDKSRRLSQFADDAWQQMLCIETGRVWDDLMVVAPGRSESFGVQIWSEPLKRP | soluble |
| MILMIDNYDSFTFNLVQFLGELGQELVVKRNDEVTISDIENMKPDFLMISPGPCSPNEAGISMDVIRYFAGKIPIFGVCLGHQSIAQVFGGEVVRAERLMHGKTSPMHHDGKTIFSDIPNPFTATRYHSLIVKKETLPDCLEVTSWTEEGEIMALRHTTLPIEGVQFHPESIMTSHGKELLQNFIRKYSPSVTSC | not soluble |
| MILRIIYTLLNYLSQPVLLLMMWRKTARHTKQTSRLWERYGIYRQLTAPRPQGIVIHAASVGEVIAATPLINAIQTHYPALPITVTTFTQTASERVQAIFANTVSHIYLPFDLPFAVNRFIKFTQPRLFIVIETELWPNLITQTYRQHIPFIIANGRLSARSLKHYQWFNPALQKILNQISMIIAQDQISAERYAQLGFNSQQLTTAGNLKFDLEISEQLRQTIQKTKQTLTLGNRPVWIAGSTHEGEDEIILATHQQLLSEWPDLLLILAPRHPNRFKNVENLLIKSELCYVKRSQQCPLTDHTQVLLADTLGEMMILYGLANIAFVGGSLIKHGGHNPLEPIAFGLPIISGIHTFNFLEIFNKLKAIHGVIEVTNDPADLAQAVNLLLKDPKKYTAIAQAGLSMLKANQGSLQRHLQLLAPYLEKLEHHHHHH | not soluble |
| MIMNHMPKKIVIIGAGAGGGISLSQLRRALSNEDVEITIIDQTGRTDFQPSYVFLALGEKKPEEISRDISQLNDSRVRAVKDTVISVDAANRVVKTSGGSYQYDYLIMSPGPSIDPSSLKGHEATHSVWTMEDSLRLRDAVKNFKGGNVLISVSTQWYKCPPVPWEMALLLDDYFRRKNIRDKVKITVAHPVSRPMEMYGPGLSEPFSKMLDDRNIEGIYGRRVSSVDAEKKRAIMDNGETVGFDLSIVAPPHLPPDFIKNNDDLRSPRGWAATNIRDFRNPKYEDVFAIGDVIAPTIQIGMAGVLAHFQADTVSSAIAEEIAGYPFMEYNKVAVCIIATGGSGVFSYCDLAGKLTDPKVKFPECRMIGNDPLFRFAHDLYEVNFLSSIYGSRLEHHHHHH | not soluble |
| MIMSEMITRQQVTSGETIHVRTDPTACIGSHPNCRMFIDSLTIAGEKLDKNIVAIDGGEDVTKADSATAAASVIRMSITPGSINPTISITLGVLIKSNVRTKIEEKVSSILQASATDMKIKLGNSNKKQEYKTDEAWGIMIDLSNLELYPISAKAFSISIEPTELMGVSKDGMRYHIISIDGLTTSQGSLPVCCAASTDKGVAKIGYIAAA | soluble |

Source: the DeepSol protein solubility set
